Experimental findings from publication PMC10175771 are described below.

In this test the target is P. falciparum cytochrome c-2 (PF3D7_1311700), recombinant, hemylated, N-terminal His6 tag (P. falciparum) (UniProt Q8I6T6). In words: crystal structure.

Take “P. falciparum cytochrome c-2 (PF3D7_1311700), recombinant, hemylated, N-terminal His6 tag (from UniProt Q8I6T6 1-159) (natural protein)”: the stoichiometry N came out at 2.
